US20040082512A1

Target: ZOT receptor of rabbit ileum
Test: cell-based or functional assay

Substance: FZI/0, synthetic octapeptide Gly Gly Val Leu Val Gln Pro Gly
- decrease of the effect of ZOT (6xHis-ZOT) on Rt of rabbit ileum after 20 min pre-treatment with FZI/0: 75%
- decrease of the effect of zonulinh on Rt of rabbit ileum after 20 min pre-treatment with FZI/0: 100%
- decrease of the effect of zonulini on Rt of rabbit ileum after 20 min pre-treatment with FZI/0: 97%
